Assay results taken from patent publication EP4293046A1 (Shanghai Jemincare Pharmaceuticals Co., Ltd., dated 2023).
Positions count from the first letter of the chain named. Names may count otherwise. One block for each binder: values may come before it.

Experiments:
[1] = biological target: biotin-labeled human PD-1 (Acro, Catalog Number: PD1-H82E4) (human) (UniProt Q15116); assay: flow cytometry, yeast-displayed Fab, titration of soluble PD-1
[2] = biological target: biotin-labeled monkey PD-1 (Acro, Catalog Number: PD1-C82E6) (monkey (cyno)) (UniProt B0LAJ3); assay: as above
[3] = biological target: T1, human PD-1 (Sino Biological, Catalog Number: 10377-H08H) (human, UniProt Q15116 25-167); assay: BLI, Octet RED96e
T1 construct: Bought protein

[4] = biological target: T1, human PD-1 (Sino Biological, Catalog …); assay: BLI, Octet RED96e, antibody on AHC sensor, PD-1 100 nM
[5] = biological target: T2, human PD-1 (Acro, Catalog Number: PD-1-H5221) (human, UniProt Q15116 25-167); assay: as above
T2 construct: Bought protein

[6] = biological target: T3, monkey PD-1 (Acro, Catalog Number: PD-1-C5223) (monkey, UniProt B0LAJ3 25-170); assay: as above
T3 construct: Bought protein; not shown: any purification tag of the vendor's construct (Acro PD-1-C5223)

[7] = biological target: T2, human PD-1 (Acro, Catalog Number: …); assay: BLI, Octet RED96e
[8] = biological target: T3, monkey PD-1 (Acro, Catalog Number: …); assay: BLI, Octet RED96e

T3 sequence (B0LAJ3 entry or part of it limits assumed, form in doubt): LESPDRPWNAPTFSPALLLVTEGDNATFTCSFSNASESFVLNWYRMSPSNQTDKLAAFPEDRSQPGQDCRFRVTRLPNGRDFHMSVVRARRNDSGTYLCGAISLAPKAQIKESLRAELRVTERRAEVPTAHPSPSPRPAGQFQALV
T1 sequence (Q15116 25-167 limits assumed): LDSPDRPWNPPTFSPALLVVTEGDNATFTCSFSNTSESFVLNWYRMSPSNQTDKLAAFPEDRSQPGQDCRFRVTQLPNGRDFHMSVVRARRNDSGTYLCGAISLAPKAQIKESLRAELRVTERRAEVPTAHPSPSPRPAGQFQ
T2 sequence (Q15116 25-167 limits assumed): as above
biotin-labeled monkey PD-1 (Acro, Catalog Number: PD1-C82E6) (monkey (cyno)), sequence (B0LAJ3 entry or part of it limits assumed): as the sequence (B0LAJ3 entry or part of it limits assumed, form in doubt) above
biotin-labeled human PD-1 (Acro, Catalog Number: PD1-H82E4) (human), sequence (Q15116 25-167 limits assumed): as the sequence (Q15116 25-167 limits assumed) above

Ag50 [1]: 5.08 nM
Ag50 [2]: 36.1 nM
B1: 41D2HzL4H3 parent sequence displayed on the yeast surface in the form of Fab (Fab, V domains shown)
VH: EVQLVESGGGLVKPGGSLRLSCAASGFTFSNYDMSWVRQAPGKGLEWVSTISGGGSYTYYADSVKGRFTISRDNAKNSLYLQMNSLRAEDTAVYYCVSPYYGMEYWGQGTLVTVSS
VL: DIQLTQSPSFLSASVGDRVTITCKASQDVGTAVAWYQQKPGKAPKLLIYWASTRHTGVPSRFSGSGSGTEFTLTISSLQPEDFATYFCQQYSSYPWTFGGGTKVEIK

fold higher affinity than Pembrolizumab [3]: 4.2 times
Kd [4]: 1.92 nM
koff [4]: 0.000542 s⁻¹
kon [4]: 283000 M⁻¹ s⁻¹
Kd [5]: 1.27 nM
koff [5]: 0.000589 s⁻¹
kon [5]: 464000 M⁻¹ s⁻¹
Kd [6]: 5.2 nM
koff [6]: 0.00153 s⁻¹
kon [6]: 295000 M⁻¹ s⁻¹
B2: 41D2HzL4H3 (antibody, V domains shown)
VH: B1 VH
VL: B1 VL
notes: Humanized antibody; the description mentions human IgG4 S228P and kappa; also called parent antibody; humanized antibody of 41D2-2C3D7

fold affinity against the parent antibody [7]: ~2 times
fold affinity against the parent antibody [8]: ~2 times
Ag50 [1]: 1.26 nM
Ag50 [2]: 2.42 nM
Kd [5]: 0.504 nM
koff [5]: 0.00023 s⁻¹
kon [5]: 457000 M⁻¹ s⁻¹
Kd [6]: 1.52 nM
koff [6]: 0.000486 s⁻¹
kon [6]: 320000 M⁻¹ s⁻¹
B3: Ab2005Am08 (antibody, V domains shown)
VH: B1 VH with S56R
VL: B1 VL
notes: also called clone YC215H3 as IgG

Kd [4]: 8.04 nM
koff [4]: 0.00118 s⁻¹
kon [4]: 147000 M⁻¹ s⁻¹
B4: 1910h3hzL3H4 (antibody, V domains shown)
VH: QVQLVQSGAEVKKPGASVKVSCKASGFTFIDYEMHWVRQAPGQGLEWIGGIHPGSGGTAYNQKFKGRATLTADISISTAYMELSRLRSDDTAVYYCTREGFDVGWYFDVWGQGTTVTVSS
VL: DVVMTQSPLSLPVTLGQPASISCRSSQSIVHSDGDTFLEWYQQRPGQSPRLLIYKVSNRFSGVPDRFSGSGSGTDFTLKISRVEAEDVGVYYCFQGSHVPYTFGQGTKLEIK
notes: Humanized antibody; the description mentions human IgG4 S228P and kappa; also called humanized antibody of 46H3A8; 1910h3hzL3 light chain + 1910h3hzH4 heavy chain
